We go through ten molecules from patent US20150368338A1 (Janssen / Centocor, published 2015).

What all share (test): ProteOn, one antigen concentration
The target of one assay is T1, IFN-αC (human, UniProt P01566 24-189).
T1 construct: also called IFN-α10; alpha C

The target in a further assay is T2, IFN-α4a (human, UniProt P05014 24-189).
T2 construct: also called IFN-αM1

In the next assay the target is T3, IFN-αWA (human, UniProt P05015 24-189).
T3 construct: also called IFN-α16; alpha WA

For a further assay, the target named is T4, human IFN-ω (human, UniProt P05000 24-195).
T4 construct: also called interferon omega

The target of another assay is T5, IFN-αF (human, UniProt P01568 24-189).
T5 construct: also called IFN-α21; alpha F
T5 chain: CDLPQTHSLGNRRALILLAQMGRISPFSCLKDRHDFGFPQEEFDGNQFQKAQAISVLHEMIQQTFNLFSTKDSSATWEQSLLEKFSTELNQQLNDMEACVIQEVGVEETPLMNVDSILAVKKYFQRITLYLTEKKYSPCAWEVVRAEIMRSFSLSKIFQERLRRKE

The target in a further assay is T6, IFN-αJ1 (human, UniProt P01567 24-189).
T6 construct: also called IFN-α7; alpha J1

The target in the next assay is T7, IFN-αG (human, UniProt P01569 24-189).
T7 construct: also called IFN-α5; alpha G

From the text for IFN-α4a: (§1) To increase the assay throughput, only one concentration of the individual antigen was used.
From the text for IFN-αC: as §1
From the text for IFN-αF: as §1
From the text for IFN-αG: as §1
From the text for IFN-αJ1: as §1
From the text for IFN-αWA: as §1
From the text for human IFN-ω: as §1

B1: IFWM3308 (antibody, V domains shown)
VH: EVQLVQSGAEVKKPGESLKISCKGSGYSFTSYWIGWVRQMPGKGLEWMGIIDPSDSDTRYSPSFQGQVTISADKSISTAYLQWSSLKASDTAMYYCARHPGLNWAPDFDYWGQGTLVTVSS
VL: DIQMTQSPSSLSASVGDRVTITCRASQSIAEFLNWYQQKPGKAPKLLIYFASSLQSGVPSRFSGSGSGTDFTLTISSLQPEDFATYYCQQSIDFPLTFGQGTKVEIK
notes: VH IFWH591, VL IFWL1004; converted mAb; also called IFWB3043
In general, Kd refers to the concentration at which binding is half-saturated. For B1, the Kd with IFN-αC is 52 pM; with IFN-α4a it was 246 pM; with IFN-αWA, 99 pM; with human IFN-ω it was 38 pM; with IFN-αF it was 53 pM; in the assay with IFN-αJ1, 203 pM. In the assay with IFN-αG, this molecule came in with a dissociation constant (Kd) of 45 pM.

B2: IFWM3314 (antibody, V domains shown)
VH: EVQLVQSGAEVKKPGESLKISCKGSGYSFTSYWIGWVRQMPGKGLEWMGIIDPSDSDTRYSPSFQGQVTISADKSISTAYLQWSSLKASDTAMYYCARHPGLNWAPDFDYWGQGTLVTVSS
VL: DIQMTQSPSSLSASVGDRVTITCRASQSIDRALNWYQQKPGKAPKLLIYFASSLQSGVPSRFSGSGSGTDFTLTISSLQPEDFATYYCQQSFDFPLTFGQGTKVEIK
notes: VH IFWH591, VL IFWL1014; converted mAb; also called IFWB3049
B2: the equilibrium dissociation constant (Kd) turned out to be 26 pM in the assay with IFN-αC; 92 pM in the assay with IFN-α4a; 42 pM with IFN-αWA; 20 pM in the assay with human IFN-ω; 21 pM with IFN-αF; 39 pM with IFN-αJ1. The molecule further had a Kd with IFN-αG of 28 pM.

B3: IFWM3311 (antibody, V domains shown)
VH: EVQLVQSGAEVKKPGESLKISCKGSGYSFTSYWIGWVRQMPGKGLEWMGIIDPSDSDTRYSPSFQGQVTISADKSISTAYLQWSSLKASDTAMYYCARHPGLNWAPDFDYWGQGTLVTVSS
VL: DIQMTQSPSSLSASVGDRVTITCRASQSIDDFLNWYQQKPGKAPKLLIYFASSLQSGVPSRFSGSGSGTDFTLTISSLQPEDFATYYCQQSHTLPLTFGQGTKVEIK
notes: VH IFWH591, VL IFWL1009; converted mAb; also called IFWB3046
Take B3: the dissociation constant (Kd) with IFN-αC turned out to be 36 pM; with IFN-α4a it was 223 pM; in the assay with IFN-αWA, 72 pM; with human IFN-ω it was 12 pM; in the assay with IFN-αF, 21 pM; with IFN-αJ1 it was 56 pM. Moreover, binding in the assay with IFN-αG was characterised by a dissociation constant (Kd) of 56 pM.

B4: IFWM3316 (antibody, V domains shown)
VH: EVQLVQSGAEVKKPGESLKISCKGSGYSFTSYWIGWVRQMPGKGLEWMGIIDPSDSDTRYSPSFQGQVTISADKSISTAYLQWSSLKASDTAMYYCARHPGLNWAPDFDYWGQGTLVTVSS
VL: DIQMTQSPSSLSASVGDRVTITCRASQSINEFLNWYQQKPGKAPKLLIYFASSLQSGVPSRFSGSGSGTDFTLTISSLQPEDFATYYCQQSYSTPLTFGQGTKVEIK
notes: VH IFWH591, VL IFWL1022; converted mAb; also called IFWB3051
Regarding B4, the Kd worked out at 42 pM with IFN-αC; 168 pM in the assay with IFN-α4a; 73 pM in the assay with IFN-αWA; 42 pM with human IFN-ω; 33 pM in the assay with IFN-αF; 70 pM with IFN-αJ1. The molecule also showed a dissociation constant (Kd) in the assay with IFN-αG of 87 pM.

B5: IFWM3309 (antibody, V domains shown)
VH: EVQLVQSGAEVKKPGESLKISCKGSGYSFTSYWIGWVRQMPGKGLEWMGIIDPSDSDTRYSPSFQGQVTISADKSISTAYLQWSSLKASDTAMYYCARHPGLNWAPDFDYWGQGTLVTVSS
VL: DIQMTQSPSSLSASVGDRVTITCRASQSIGGFLNWYQQKPGKAPKLLIYFASSLQSGVPSRFSGSGSGTDFTLTISSLQPEDFATYYCQQSYSLPITFGQGTKVEIK
notes: VH IFWH591, VL IFWL1006; converted mAb; also called IFWB3044
For B5, the equilibrium dissociation constant (Kd) with IFN-αC came to 109 pM; in the assay with IFN-α4a it was 383 pM; in the assay with IFN-αWA, 139 pM; with human IFN-ω it was 55 pM; with IFN-αF it was 140 pM; with IFN-αJ1, 275 pM. This molecule also had a dissociation constant (Kd) in the assay with IFN-αG of 120 pM.

B6: IFWM3319 (antibody, V domains shown)
VH: EVQLVQSGAEVKKPGESLKISCKGSGYSFTSYWIGWVRQMPGKGLEWMGIIDPSDSDTRYSPSFQGQVTISADKSISTAYLQWSSLKASDTAMYYCARHPGLNWAPDFDYWGQGTLVTVSS
VL: DIQMTQSPSSLSASVGDRVTITCRASQSITGFLNWYQQKPGKAPKLLIYAASSLQSGVPSRFSGSGSGTDFTLTISSLQPEDFATYYCQQSHDFPLTFGQGTKVEIK
notes: VH IFWH591, VL IFWL1041; converted mAb; also called IFWB3054
B6: the Kd with IFN-αC stood at 52 pM; with IFN-α4a, 274 pM; in the assay with IFN-αWA it was 107 pM; in the assay with human IFN-ω, 34 pM; in the assay with IFN-αF, 44 pM; with IFN-αJ1 it was 151 pM. For the same molecule, in the assay with IFN-αG, the dissociation constant (Kd) came out at 49 pM.

B7: IFWM3315 (antibody, V domains shown)
VH: EVQLVQSGAEVKKPGESLKISCKGSGYSFTSYWIGWVRQMPGKGLEWMGIIDPSDSDTRYSPSFQGQVTISADKSISTAYLQWSSLKASDTAMYYCARHPGLNWAPDFDYWGQGTLVTVSS
VL: DIQMTQSPSSLSASVGDRVTITCRASQSITSSLNWYQQKPGKAPKLLIYFASSLQSGVPSRFSGSGSGTDFTLTISSLQPEDFATYYCQQSFDLPLTFGQGTKVEIK
notes: VH IFWH591, VL IFWL1017; converted mAb; also called IFWB3050
Take B7: the dissociation constant (Kd) with IFN-αC turned out to be 59 pM; with IFN-α4a, 240 pM; in the assay with IFN-αWA, 115 pM; in the assay with human IFN-ω it was 63 pM; with IFN-αF, 50 pM; with IFN-αJ1, 134 pM. The molecule further yielded a dissociation constant (Kd) in the assay with IFN-αG of 61 pM.

B8: IFWM3317 (antibody, V domains shown)
VH: EVQLVQSGAEVKKPGESLKISCKGSGYSFTSYWIGWVRQMPGKGLEWMGIIDPSDSDTRYSPSFQGQVTISADKSISTAYLQWSSLKASDTAMYYCARHPGLNWAPDFDYWGQGTLVTVSS
VL: DIQMTQSPSSLSASVGDRVTITCRASQSISKFLNWYQQKPGKAPKLLIYFASSLQSGVPSRFSGSGSGTDFTLTISSLQPEDFATYYCQQSYDFPITFGQGTKVEIK
notes: VH IFWH591, VL IFWL1026; converted mAb; also called IFWB3052
B8: the Kd with IFN-αC came to 133 pM; with IFN-α4a, 370 pM; with IFN-αWA, 162 pM; with human IFN-ω, 16 pM; with IFN-αF it was 121 pM; with IFN-αJ1, 206 pM. The molecule further showed a Kd with IFN-αG of 126 pM.

B9: IFWM3318 (antibody, V domains shown)
VH: EVQLVQSGAEVKKPGESLKISCKGSGYSFTSYWIGWVRQMPGKGLEWMGIIDPSDSDTRYSPSFQGQVTISADKSISTAYLQWSSLKASDTAMYYCARHPGLNWAPDFDYWGQGTLVTVSS
VL: DIQMTQSPSSLSASVGDRVTITCRASQSISEYLNWYQQKPGKAPKLLIYFASSLQSGVPSRFSGSGSGTDFTLTISSLQPEDFATYYCQQSHSLPITFGQGTKVEIK
notes: VH IFWH591, VL IFWL1038; converted mAb; also called IFWB3053
Consider B9, for which the dissociation constant (Kd) with IFN-αC came out at 30 pM; with IFN-α4a, 252 pM; with IFN-αWA, 91 pM; with human IFN-ω, 18 pM; in the assay with IFN-αF, 34 pM; with IFN-αJ1 it was 119 pM. The same molecule registered a dissociation constant (Kd) in the assay with IFN-αG of 40 pM.

B10: IFWM3310 (antibody, V domains shown)
VH: EVQLVQSGAEVKKPGESLKISCKGSGYSFTSYWIGWVRQMPGKGLEWMGIIDPSDSDTRYSPSFQGQVTISADKSISTAYLQWSSLKASDTAMYYCARHPGLNWAPDFDYWGQGTLVTVSS
VL: DIQMTQSPSSLSASVGDRVTITCRASQSIGKSLNWYQQKPGKAPKLLIYFASSLQSGVPSRFSGSGSGTDFTLTISSLQPEDFATYYCQQSYDFPLTFGQGTKVEIK
notes: VH IFWH591, VL IFWL1007; converted mAb; also called IFWB3045
Turning to B10, the dissociation constant (Kd) was found to be 57 pM with IFN-αC; 177 pM in the assay with IFN-α4a; 91 pM in the assay with IFN-αWA; 65 pM with human IFN-ω; 40 pM with IFN-αF; 101 pM with IFN-αJ1. In addition, in the assay with IFN-αG, the affinity, expressed as Kd, was 54 pM.
